Target: CHD4 PHD2 finger (15N-labelled, GST tag cleaved) (uniformly 15N-labelled)
Assay: NMR titration

Kd: 18 µM
B1: unmodified histone H3 peptide (amino acids 1-12 of histone H3), NMR experiments (peptide)
peptide: ARTKQTARKSTG
